Reference: the supplement of paper PMC10567573

B1: ZNF8 (parent)
chain: VHVIGVEEPSVGASMLFDIREST
B2: KRT34 (parent)
chain: PTVDLNQVLNETRSQYEALVETNR

Variants of: B1
Experiment: protein stability index of a GFP-peptide fusion (GPS, HEK-293T) (PSI 1-6); higher = more stable
Conditions: c terminus: native
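Further: lentivirally expressed fusions sorted by FACS into six bins by GFP to DsRed ratio, PSI derived from sequencing read proportions per bin multiplied by bin number.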

Variant	protein stability index
E21C	2.9
E21Q	1.29
E21K	2.2
E21S	1.76
E21H	1.95
E21I	3.55
E21V	1.78
E21W	3.39
E21Y	2.4
E21G	2.42
E21R	1.53
E21F	2.77
E21T	2.01
E21D	2.38
E21M	2.04
E21A	2.37
E21L	2.64
E21N	2.08
E21P	1.42
I19L	2.04
I19C	2.37
I19A	3.07
I19M	2.33
I19Y	2.06
I19D	3.65

Variant	protein stability index
I19V	2.38
I19G	2.72
I19E	3.34
I19F	1.64
I19H	3.37
I19T	2.91
I19R	2.7
I19K	3.14
I19P	3.1
I19W	1.51
I19Q	3.4
I19S	3.29
I19N	3.23
L16E	3.17
L16T	2.44
L16R	2.98
L16W	1.41
L16S	2.83
L16F	1.58
L16I	2.06
L16M	1.94
L16P	2.48
L16Q	2.87
L16K	2.64
L16N	3.6

Variant	protein stability index
L16G	2.95
L16V	2
L16H	2.71
L16Y	2.31
T23F	1.61
T23K	2.22
T23G	2.12
T23D	2.37
T23E	2.37
T23A	2.01
T23Y	1.76
T23P	2.04
T23I	1.69
T23H	2.45
T23L	1.79
T23S	2.48
T23V	2.06
T23R	2.63
T23M	2.14
T23N	2.14
T23C	1.76
T23Q	2.09
R20S	2.63
R20Y	1.81
R20C	1.85

Variant	protein stability index
R20N	3.1
R20G	2.37
R20P	2.48
R20I	1.86
R20D	2.96
R20K	2.4
R20W	2.43
R20T	2.4
R20H	2.68
R20F	2.49
R20E	3.26
R20L	1.55
R20M	1.79
R20A	1.64
R20Q	2.36
R20V	1.57
D18P	1.84
D18Y	2.55
D18K	1.42
D18Q	1.98
D18F	2.25
D18A	1.69
D18M	2.02
D18I	3.24
D18G	1.65

Variant	protein stability index
D18N	2.48
D18C	2.4
D18E	1.31
D18T	1.69
D18H	1.39
D18W	2.19
D18R	1.59
D18S	1.75
D18V	2.9
D18L	3
F17H	3.17
F17T	2.68
F17V	2.21
F17Y	2.15
F17N	3.33
F17I	1.74
F17C	2.71
F17R	3.08
F17L	2.03
F17E	3.91
F17P	3.77
F17M	2.52
F17Q	3.41
F17D	3.79
F17A	3.44

Variant	protein stability index
F17S	3.11
F17K	3.4
F17W	2.28
F17G	3.66
S22D	2.62
S22A	2.38
S22Y	1.59
S22R	1.92
S22I	1.69
S22K	2.3
S22V	1.55
S22W	1.36
S22H	2.55
S22T	2.35
S22C	2.52
S22M	2.55
S22G	1.79
S22F	2.23
S22N	3.08
S22P	2.42
S22L	1.68
S22Q	2.2
S22E	2.58

Variants of: B2
Experiment: as above
Conditions: c terminus: a fixed tail appended

Variant	protein stability index
D4Y	3.44
D4F	3.19
D4P	3.05
D4M	3.21
D4G	3.62
D4I	3.58
D4T	3.5
D4A	4.21
D4S	2.73
D4Q	4.34
D4N	4.38
D4W	2.59
D4R	4.48
D4E	4.01
D4H	3.56
D4L	3.56
D4V	4.02
D4K	3.94
D4C	2.97
Q7R	3.65
Q7D	3.66
Q7K	3.98
Q7N	3.92
Q7C	3.95

Variant	protein stability index
Q7I	2.99
Q7V	2.37
Q7Y	3.65
Q7E	3.25
Q7M	3.62
Q7S	3.62
Q7H	4
Q7W	3.08
Q7F	3.61
Q7T	2.75
Q7P	4.79
Q7L	4.08
Q7A	3.13
Q7G	4.25
P1W	2.95
P1L	2.88
P1C	2.77
P1G	3.5
P1H	3.97
P1F	3.22
P1R	3.43
P1I	2.42
P1D	4.12
P1V	2.5

Variant	protein stability index
P1A	3.41
P1E	2.82
P1T	3.96
P1M	3.31
P1Q	3.77
P1K	3.83
P1S	3.82
P1N	3.21
P1Y	2.84
N6K	2.98
N6D	2.79
N6W	2.5
N6T	3.05
N6Y	1.71
N6L	2.14
N6C	2.51
N6H	2.92
N6I	2.03
N6F	2.42
N6G	3.79
N6M	1.9
N6E	2.56
N6R	3.9
N6Q	2.56

Variant	protein stability index
N6P	4.8
N6V	2
N6A	2.48
N6S	3.33
L9G	4.64
L9K	4.45
L9D	5.55
L9R	4.36
L9T	4.61
L9M	4.21
L9Y	3.61
L9F	3.45
L9C	4.45
L9E	4.52
L9S	5.03
L9I	3.14
L9P	5.34
L9W	4.04
L9H	4.66
L9N	4.76
L9Q	3.36
L9V	4.28
L9A	4.09
N10I	2.47

Variant	protein stability index
N10M	2.49
N10E	2.41
N10R	3.21
N10P	4.55
N10K	2.7
N10H	3.19
N10F	2.63
N10D	3.74
N10C	2.82
N10V	3.21
N10S	3.46
N10Q	2.5
N10A	2.44
N10T	2.75
N10G	4.35
N10L	1.58
T2V	2.52
T2Y	1.65
T2H	3.38
T2N	3.72
T2E	2.78
T2M	1.85
T2G	4.14
T2D	3.82

Variant	protein stability index
T2K	3.14
T2Q	2.71
T2I	2.99
T2L	1.85
T2C	2.67
T2S	3.27
T2P	3.01
T2R	3.66
T2F	1.89
T2W	1.4
L5W	3.3
L5P	3.77
L5E	4.61
L5N	4.57
L5S	4.13
L5Q	4.38
L5G	4.68
L5Y	2.77
L5I	2.24
L5R	4.53
L5K	4.8
L5C	3.68
L5D	4.67
L5A	2.51

Variant	protein stability index
L5F	3.92
L5T	4.8
L5H	3.8
L5V	2.86
L5M	4.24
V3E	4.03
V3H	3.8
V3P	4.62
V3L	2.65
V3G	4.15
V3C	4.07
V3Y	2.83
V3F	3.65
V3W	5.02
V3N	4.46
V3S	4.28
V3A	3.63
V3T	3.89
V3K	2.76
V3M	2.45
V3I	3.7
V3R	2.92
V3Q	3.05
V3D	4.76

Variant	protein stability index
V8M	2.88
V8H	3.52
V8W	2.56
V8G	4.2
V8L	1.43
V8T	3.76
V8N	4.58
V8P	4.2
V8C	3.48
V8Y	2.29
V8S	4.18
V8I	3.57
V8K	4.22
V8E	4.4
V8Q	4.3
V8R	4.67
V8A	3.56
V8D	4.64
